The results in this text go back to US11053304 (CENTIVAX, dated 2021).

The target in test [1] is SARS-CoV-1 Receptor Binding Domain (RBD) protein (SARS-CoV-1, UniProt P59594 306-527). Kind of test: SPR, scFv captured via anti-V5, RBD as analyte.
The target of test [2] is MERS Receptor Binding Domain (RBD) protein (MERS coronavirus, UniProt K9N5Q8 367-606). The test can be described thus: SPR, scFv captured via anti-V5, RBD as analyte.

B1: COVID19_P07_B08 (scFv, V domains shown)
VH: EVQLVESGGGLVQPGGSLRLSCAASGFTFDDYAMHWVRQAPGKGLEWVSVISGSGRNTYYADSVKGRFTISRDNSKNTLYLQMNSLRAEDTAVYYCVTNMDNSRDYFPHYFHDMDVWGQGTLVTVSS
VL: not shown
For B1, the binding result in test [1] and in test [2] was “no binding (tested: up to 300 nM)” each time.

B2: COVID19_P07_D05 (scFv, V domains shown)
VH: EVQLVESGGGLVQPGGSLRLSCAASGFTFRSYAMHWVRQAPGKGLEWVAVISHDASNKYYADSVKGRFTISRDNSKNTLYLQMNSLRAEDTAVYYCVTNMDNSRDYFPHYFHDMDVWGQGTLVTVSS
VL: not shown
As for B2, the binding result in test [1] and in test [2] was “no binding (tested: up to 300 nM)” each time.

B3: COVID19_P20_F05 (scFv, V domains shown)
VH: EVQLVESGGGLVQPGGSLRLSCAASGFTFSTYAMHWVRQAPGKGLEWVSGVSWNGSRTHYADSVKGRFTISRDNSKNTLYLQMNSLRAEDTAVYYCVTNMDNSRDYFPHYFHDMDVWGQGTLVTVSS
VL: not shown
For B3, the binding result in test [1] and in test [2] was “no binding (tested: up to 300 nM)” throughout.

B4: COVID19_P08_C02 (scFv, V domains shown)
VH: EVQLVESGGGLVQPGGSLRLSCAASGFTFSSYAMHWVRQAPGKGLEWVSGVSASGGGPYYADSVKGRFTISRDNSKNTLYLQMNSLRAEDTAVYYCVTNMDNSRDYFPHYFHDMDVWGQGTLVTVSS
VL: not shown
As to B4, the binding result in test [1] and in test [2] was “no binding (tested: up to 300 nM)” throughout.

B5: COVID19_P07_H05 (scFv, V domains shown)
VH: EVQLVESGGGLVQPGGSLRLSCAASGFTFSSYGMHWIRQAPGKGLEWVSVITGDGRNKFYADSVKGRFTISRDNSKNTLYLQMNSLRAEDTAVYYCVTNMDNSRDYFPHYFHDMDVWGQGTLVTVSS
VL: not shown
In the case of B5, the binding result in test [1] and in test [2] was “no binding (tested: up to 300 nM)” each time.

B6: COVID19_P07_F05 (scFv, V domains shown)
VH: EVQLVESGGGLVQPGGSLRLSCAASGFTFSNYAMHWVRQAPGKGLEWVSGISSGGSGTHYADSVKGRFTISRDNSKNTLYLQMNSLRAEDTAVYYCVTNMDNSRDYFPHYFHDMDVWGQGTLVTVSS
VL: not shown
Turning to B6, the binding result in test [1] and in test [2] was “no binding (tested: up to 300 nM)” throughout.

B7: COVID19_P07_G08 (scFv, V domains shown)
VH: EVQLVESGGGLVQPGGSLRLSCAASGFTFSSYAMHWVRQAPGKGLEWVSAISGSGGSTYYADSVKGRFTISRDNSKNTLYLQMNSLRAEDTAVYYCVTNMDNSRDYFPHYFHDMDVWGQGTLVTVSS
VL: not shown
For B7, the binding result in test [1] and in test [2] was “no binding (tested: up to 300 nM)” in each case.

B8: COVID19_P08_D11 (scFv, V domains shown)
VH: EVQLVESGGGLVQPGGSLRLSCAASGFKFNTYAMHWVRQAPGKGLEWVSAISITGGNTYYADSVKGRFTISRDNSKNTLYLQMNSLRAEDTAVYYCVTNMDNSRDYFPHYFHDMDVWGQGTLVTVSS
VL: not shown
With B8, the binding result in test [1] and in test [2] was “no binding (tested: up to 300 nM)” throughout.

B9: COVID19_P19_H03 (scFv, V domains shown)
VH: EVQLVESGGGLVQPGGSLRLSCAASGFTFSSYGMHWVRQAPGKGLEWVAVISYDGSNKYYADSVKGRFTISRDNSKNTLYLQMNSLRAEDTAVYYCVTNMDNSRDYFPHYFHDMDVWGQGTLVTVSS
VL: not shown
On to B9, for which the binding result in test [1] and in test [2] was “no binding (tested: up to 300 nM)” each time.

B10: COVID19_P19_D02 (scFv, V domains shown)
VH: EVQLVESGGGLVQPGGSLRLSCAASGFTFSSYGMHWVRQAPGKGLEWVAAISGSGGSTHYADSVKGRFTISRDNSKNTLYLQMNSLRAEDTAVYYCVTNMDNSRDYFPHYFHDMDVWGQGTLVTVSS
VL: not shown
B10: the binding result in test [1] and in test [2] was “no binding (tested: up to 300 nM)” each time.

B11: COVID19_P07_H06 (scFv, V domains shown)
VH: EVQLVESGGGLVQPGGSLRLSCAASGFTFSSYGMHWIRQAPGKGLEWVSAVSASGDRTHYADSVKGRFTISRDNSKNTLYLQMNSLRAEDTAVYYCVTNLDNSRDYFPHYFHDMDVWGQGTLVTVSS
VL: not shown
In the case of B11, the binding result in test [1] and in test [2] was “no binding (tested: up to 300 nM)” throughout.

B12: COVID19_P08_B05 (scFv, V domains shown)
VH: EVQLVESGGGLVQPGGSLRLSCAASGFTFSSYGMHWVRQAPGKGLEWVSAISGSGGTTYYADSVKGRFTISRDNSKNTLYLQMNSLRAEDTAVYYCVTNMDNSRDYFPHYFHDMDVWGQGTLVTVSS
VL: not shown
With B12, the binding result in test [1] and in test [2] was “no binding (tested: up to 300 nM)” each time.

B13: COVID19_P08_F08 (scFv, V domains shown)
VH: EVQLVESGGGLVQPGGSLRLSCAASGFTFTSYGMHWVRQAPGKGLEWVSAISGSGGTTYYADSVKGRFTISRDNSKNTLYLQMNSLRAEDTAVYYCVTNMDNSRDYFPHYFHDMDVWGQGTLVTVSS
VL: not shown
As to B13, the binding result in test [1] and in test [2] was “no binding (tested: up to 300 nM)” each time.

B14: COVID19_P07_E03 (scFv, V domains shown)
VH: EVQLVESGGGLVQPGGSLRLSCAASGFIFSSFGMHWVRQAPGKGLEWVSAISDSGDATQYADSVKGRFTISRDNSKNTLYLQMNSLRAEDTAVYYCVTNMDNSRDYFPHYFHDMDVWGQGTLVTVSS
VL: not shown
Take B14: the binding result in test [1] and in test [2] was “no binding (tested: up to 300 nM)” each time.

B15: COVID19_P07_H03 (scFv, V domains shown)
VH: EVQLVESGGGLVQPGGSLRLSCAASGFTFSSYAMHWVRQAPGKGLEWVSAISRSGDSAYYADSVKGRFTISRDNSKNTLYLQMNSLRAEDTAVYYCVTNMDNSRDYFPHYFHDMDVWGQGTLVTVSS
VL: not shown
Regarding B15, the binding result in test [1] and in test [2] was “no binding (tested: up to 300 nM)” in each case.

B16: COVID19_P20_F04 (scFv, V domains shown)
VH: EVQLVESGGGLVQPGGSLRLSCAASGFAFSSYALHWVRQAPGKGLEWVSAISGSGGDTYYADSVKGRFTISRDNSKNTLYLQMNSLRAEDTAVYYCVTNMDNSRDYFPHYFHDMDVWGQGTLVTVSS
VL: DIVMTQSPLSLPVTPGEPASISCRSSQSLLHRNGYNYVDWYLQKPGQSPQLLIYLGSNRASGVPDRFSGSGSGTDFTLRISRVEAEDVGVYYCMQARQTPLTFGGGTKVEIKR
For the molecule B16, the binding result in test [1] and in test [2] was “no binding (tested: up to 300 nM)” in each case.

B17: COVID19_P07_D10 (scFv, V domains shown)
VH: EVQLVESGGGLVQPGGSLRLSCAASGFTFDDYAMHWVRQAPGKGLEWVSAVSTTGGSTYYADSVKGRFTISRDNSKNTLYLQMNSLRAEDTAVYYCVTNMDNSRDYFPHYFHDMDVWGQGTLVTVSS
VL: not shown
For B17, the binding result in test [1] and in test [2] was “no binding (tested: up to 300 nM)” throughout.

B18: COVID19_P07_E10 (scFv, V domains shown)
VH: EVQLVESGGGLVQPGGSLRLSCAASGFTFSSYGMHWVRQAPGKGLEWVAVISYDGSNKYYADSVKGRFTISRDNSKNTLYLQMNSLRAEDTAVYYCVTNMDNSRDYFPHYFHDMDVWGQGTLVTVSS
VL: DIVMTQSPLSLPVTPGEPASISCRSSQSLLHSNGYNDLDWYLQKPGQSPQLLIYGGSNGASGVPDRFSGSGSGTDFTLKISRVEAEDVGVYYCMQALQTPLTFGGGTKVEIKR
Take B18: the binding result in test [1] and in test [2] was “no binding (tested: up to 300 nM)” throughout.

B19: COVID19_P20_B01 (scFv, V domains shown)
VH: EVQLVESGGGLVQPGGSLRLSCAASGFTFSSYAMHWVRQAPGKGLEWVAVISSSGRNKFYADSVKGRFTISRDNSKNTLYLQMNSLRAEDTAVYYCVTNMDNSRDYFPHYFHDMDVWGQGTLVTVSS
VL: not shown
Regarding B19, the binding result in test [1] and in test [2] was “no binding (tested: up to 300 nM)” throughout.

B20: COVID19_P08_A10 (scFv, V domains shown)
VH: EVQLVESGGGLVQPGGSLRLSCAASGFIFNDYGMHWVRQAPGKGLEWVSAISGSGGNTYYADSVKGRFTISRDNSKNTLYLQMNSLRAEDTAVYYCVTNMDNSRDYFPHYFHDMDVWGQGTLVTVSS
VL: not shown
With B20, the binding result in test [1] and in test [2] was “no binding (tested: up to 300 nM)” each time.

B21: COVID19_P07_A12 (scFv, V domains shown)
VH: EVQLVESGGGLVQPGGSLRLSCAASGFTFSNYAMHWVRQAPGKGLEWVSAIGAGGGTYYADSVKGRFTISRDNSKNTLYLQMNSLRAEDTAVYYCVTNMDNSRDYFPHYFHDMDVWGQGTLVTVSS
VL: DIVMTQSPLSLPVTPGEPASISCRSSQSLLYSDGDTYLDWYLQKPGQSPQLLIYLGSNRASGVPDRFSGSGSGTDFTLKISRVEAEDVGVYYCMQALQTPLTFGGGTKVEIKR
On to B21, for which the binding result in test [1] and in test [2] was “no binding (tested: up to 300 nM)” each time.
